± gives the standard deviation of the averaged measurements.
System: ATP
Test: switch fluorescence ratio, 500 uM ATP over buffer (Cy3 cluster intensity, sum of 5 cycles each) (fold (ratio)); higher = stronger signal-on switching upon ATP binding; sequences stand for … in TCGTCGGCAGCGTCAGATGTGTATAAGAGACAGTTTTTTTTTTTTTTTTTTTTTTTTT…TC
Details: aptamer strand: ATP DNA aptamer (quencher-CACCTGGGGGAGTATTGCGGAGGAAGG + anchor), 100 nM annealed; ATP concentration: 500 uM
How it was run: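 Cy3-labelled switching-strand clusters on a modified Illumina MiSeq flow-cell were annealed to 100 nM quencher-labelled ATP aptamer and imaged first in selection buffer, then after 15 min with 500 uM ATP at 22 °C. NaOH stripping and re-annealing separated each of five buffer/ATP cycles, and clusters outside 100-1000 RFU were excluded. The fluorescence ratio sums target-cycle Cy3 intensity over buffer-cycle Cy3 intensity per cluster and averages it per switch-domain sequence.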
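Further: ATP exposure 15 min at 22 °C before imaging.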

Sequence	switch fluorescence ratio
GTGTTTGGAA	0.993 ± 0.012
GTGTTTGGCG	0.9981 ± 0.0051
GTGTTTTATA	0.977 ± 0.026
GTGTTTTGTC	1.02 ± 0.068
GTTAAAAAAA	0.958 ± 0.021
GTTAAAAAGG	0.998 ± 0.022
GTTAAATTAG	0.9875 ± 0.0056
GTTAAATTCA	1 ± 0.024
GTTAACGGAC	1.17 ± 0.098
GTTAACTCGG	0.985 ± 0.047
GTTAACTCTG	0.9801 ± 0.0084
GTTAAGGGCC	0.99 ± 0.011
GTTAATATAG	0.992 ± 0.035
GTTAATTATT	1.06 ± 0.085
GTTAATTTGC	0.984 ± 0.04
GTTAATTTTT	1.01 ± 0.043
GTTACAAGAC	1.21 ± 0.048
GTTACCCAGT	1.049 ± 0.0098
GTTACCGGAC	1.5 ± 0.034
GTTACCGTTT	1.02 ± 0.053
GTTACTGCGG	0.98 ± 0.021
GTTAGCGCTT	0.974 ± 0.025
GTTAGCGGTT	0.9884 ± 0.0034
GTTAGCTAGG	1.04 ± 0.026
GTTAGGTTAT	1 ± 0.018
GTTAGTAAGG	1.01 ± 0.041

Sequence	switch fluorescence ratio
GTTAGTACTA	1 ± 0.038
GTTAGTGTAG	0.9975 ± 0.0011
GTTAGTTAAA	0.968 ± 0.02
GTTAGTTACT	1.01 ± 0.057
GTTAGTTTGC	1.01 ± 0.021
GTTATAACG	1 ± 0.05
GTTATATGAC	0.999 ± 0.012
GTTATCACTG	1.02 ± 0.014
GTTATCAGAT	1.02 ± 0.021
GTTATCAGGG	0.995 ± 0.026
GTTATCGCTA	1.07 ± 0.04
GTTATCTTAG	1.01 ± 0.025
GTTATGCGCG	1.03 ± 0.013
GTTATGGCTG	1.05 ± 0.021
GTTATGGTAC	1.03 ± 0.028
GTTATGGTTT	0.986 ± 0.031
GTTATGTTGT	1.01 ± 0.04
GTTATTATGT	0.994 ± 0.077
GTTATTCATG	0.988 ± 0.018
GTTATTCCGG	1.038 ± 0.0043
GTTATTCTCT	0.971 ± 0.015
GTTATTGGGG	1.01 ± 0.024
GTTATTTGTT	1.068 ± 0.0071
GTTATTTTAA	0.9846 ± 0.0027
GTTCAAAAGC	0.98 ± 0.034
GTTCAAAGCG	0.999 ± 0.029

Sequence	switch fluorescence ratio
GTTCACTACC	1.15 ± 0.0083
GTTCAGTGAG	0.995 ± 0.01
GTTCATCCAG	1.05 ± 0.017
GTTCATGGTA	0.99 ± 0.0028
GTTCATGGTT	1.01 ± 0.054
GTTCCGGCTG	1.02 ± 0.023
GTTCCGGGTT	0.983 ± 0.075
GTTCCTGCGG	1.075 ± 0.01
GTTCCTTAGG	1.01 ± 0.026
GTTCGACGGC	1.05 ± 0.095
GTTCGGCAGA	1 ± 0.032
GTTCGGGGCC	1.01 ± 0.046
GTTCGGGGTG	0.978 ± 0.003
GTTCGGGTTG	0.988 ± 0.027
GTTCGTTAGG	1.017 ± 0.0016
GTTCTATCAT	0.961 ± 0.022
GTTCTGGGGG	0.984 ± 0.024
GTTCTTGGG	0.9835 ± 0.0023
GTTCTTGTAT	0.988 ± 0.029
GTTCTTTGGG	0.995 ± 0.013
GTTCTTTGTG	1 ± 0.012
GTTGAAACTT	0.9976 ± 0.004
GTTGAAAGCG	1.03 ± 0.015
GTTGAAAGTA	0.977 ± 0.039
GTTGAAATAA	1 ± 0.047
GTTGAAGGAT	1.003 ± 0.0036

Sequence	switch fluorescence ratio
GTTGAATGAC	1.04 ± 0.0083
GTTGAATTAA	0.985 ± 0.041
GTTGACAGCT	1 ± 0.015
GTTGACAGTG	1 ± 0.062
GTTGAGGGTC	0.993 ± 0.021
GTTGAGGTCC	1.02 ± 0.041
GTTGAGTAGC	1.02 ± 0.042
GTTGATAAGG	1.01 ± 0.045
GTTGATGTAG	0.984 ± 0.028
GTTGATTGGG	0.994 ± 0.029
GTTGATTTAT	0.983 ± 0.024
GTTGATTTTA	0.972 ± 0.014
GTTGCAGCGC	0.982 ± 0.013
GTTGCAGGTG	2.06 ± 0.057
GTTGCTACCA	1.01 ± 0.053
GTTGGAAAGT	0.99 ± 0.022
GTTGGAACAG	0.969 ± 0.043
GTTGGATAAT	1 ± 0.033
GTTGGATATT	0.9976 ± 0.0064
GTTGGATCCG	0.984 ± 0.017
GTTGGATTTA	1.006 ± 0.0077
GTTGGCCCGG	0.997 ± 0.022
GTTGGGAGGC	1.064 ± 0.0014
GTTGGGCAGC	1.046 ± 0.0053
GTTGGGCTTT	0.98 ± 0.025
GTTGGGGAAA	0.9985 ± 0.0075

Sequence	switch fluorescence ratio
GTTGGGGATC	0.991 ± 0.025
GTTGGGGCCT	1.03 ± 0.051
GTTGGGGGAT	0.986 ± 0.038
GTTGGGGGGG	1.01 ± 0.03
GTTGGGGGTT	1.01 ± 0.042
GTTGGGGTTT	1.01 ± 0.031
GTTGGGTGTG	1.02 ± 0.019
GTTGGTGTGG	0.9975 ± 0.0086
GTTGGTTAGA	0.9776 ± 0.005
GTTGGTTGGG	0.975 ± 0.023
GTTGGTTGTG	0.981 ± 0.0053
GTTGGTTTGG	1.04 ± 0.013
GTTGGTTTTG	1.008 ± 0.0057
GTTGTAAAGT	1.03 ± 0.036
GTTGTAACGT	0.988 ± 0.054
GTTGTAAGAT	0.981 ± 0.028
GTTGTAAGCA	0.982 ± 0.053
GTTGTACGAA	1.19 ± 0.28
GTTGTACGAT	0.9971 ± 0.003
GTTGTAGCGG	1 ± 0.029
GTTGTAGCTG	0.967 ± 0.015
GTTGTAGTTA	1.01 ± 0.041
GTTGTATGGA	0.995 ± 0.034
GTTGTATTAG	0.988 ± 0.025
GTTGTCGTTT	0.99104 ± 0.00015
GTTGTGAAAG	1 ± 0.035

Sequence	switch fluorescence ratio
GTTGTGGTAT	0.9785 ± 0.0027
GTTGTGTCCG	1.01 ± 0.067
GTTGTTAAAT	1.011 ± 0.0047
GTTGTTATAG	1.02 ± 0.039
GTTGTTATAT	1.02 ± 0.037
GTTGTTATCG	0.993 ± 0.028
GTTGTTCTGA	0.9718 ± 0.0033
GTTGTTGAAT	0.992 ± 0.026
GTTGTTGTTT	0.999 ± 0.0094
GTTGTTTAGC	0.974 ± 0.022
GTTGTTTCGT	1 ± 0.017
GTTGTTTGGG	0.99 ± 0.034
GTTGTTTTCA	0.993 ± 0.024
GTTTAAATTA	1.02 ± 0.018
GTTTACCGGA	1.05 ± 0.08
GTTTAGATGT	0.994 ± 0.02
GTTTAGCTGT	0.9948 ± 0.0021
GTTTAGGCCC	1 ± 0.041
GTTTATGCCA	0.997 ± 0.029
GTTTATGTGG	0.981 ± 0.025
GTTTATTGTC	1.04 ± 0.037
GTTTCAAGAG	1.03 ± 0.012
GTTTCAAGCG	1.02 ± 0.025
